Common to all, as to format: cell-based
Data set [1] deals with murine fibroblasts (L929). Briefly: Cytotoxicity against L929 fibroblasts (MTT). Particulars: L929. How it is done: Mammalian cells toxicity assays. L929 mice fibroblasts (Rio de Janeiro Cell Bank) and SPCs were seeded in 96-well microtiter plates in a concentration of 1.0×10^5 cells per well, in DMEM medium, supplemented with different concentrations of tested peptides (1-600 μM). After 48 h incubation, a thiazolyl blue tetrazolium bromide (MTT) protocol was performed. Briefly, 60% of the medium was removed, and 10 μL of MTT (5 mg mL^−1) (Sigma, USA) solution was added to each well and the plate was incubated for 4 h, in 5% CO2, at 37° C. The blue formazan product generated was dissolved by the addition of 100 μL of 100% DMSO (Mallinckrodt, Germany) per well. Plates were then gently swirled for 5 min, at room temperature, to dissolve the precipitate. The absorbance was monitored at 575 nm using a microplate spectrophotometer (Bio-Tek, USA). Cytotoxicity was determined as a percentage of the maximum value after subtracting the background. The results were expressed as the percentage of each sample compared to the negative control (PBS buffer, pH 7.4) and cell culture was incubated in a lysis buffer (10 mM Tris, pH 7.4, 1 mM ethylenediamine tetraacetic acid (EDTA), and 0.1% Triton X-100).

Data set [2] concerns mouse red blood cells (mRBCs). Put plainly: Hemolysis of mouse red blood cells. Particulars: 0.5 to 200 μmol L^−1. How it is done: Hemolysis assays. Hemolytic activity of peptides was determined by using fresh mouse red blood cells (mRBCs), by measuring the peptide-induced changes of the optical density (OD) at 540 nm (Victor X, Perkin-Elmer, Germany), 100% lysis was determined by analysing the supernatant of erythrocytes that had been incubated with Triton X-100 (1%).

The subject of data set [3] is murine macrophages monocytes (RAW 264.7). Briefly: Cytotoxicity against RAW 264.7 cells (MTT).
Data set [4] relates to human red blood cells (hRBCs). Briefly: Cytotoxicity / hemolysis against human red blood cells. Particulars: hRBCs.
Protocol: Once the mechanisms by which the peptide targeted bacterial cells was elucidawted, the effect of the pentapeptide motif insertion on cytotoxicity against mammalian cells was evaluated.

For the substance “LL-37: human cathelicidin LL-37, used for comparison”, the “Cytotoxic activity, Peptide Concentration” value in data set [1] worked out at 95 µmol/L; in data set [3] (RAW 264.7 (Table 2)) it was 100 µmol/L; in data set [3] (RAW 264.7, 24 h, 0.5 to 200 μmol L^−1, MTT (Table 6)), 100 µmol/L; in data set [4], 87 µmol/L. Moreover, the “Hemolytic activity, Peptide Concentration” value in data set [2] was 100 µmol/L.
